Residue numbers refer to the chain shown, from its start. Numbers in names are those of the source.
How the values were obtained:
[1] = Enzyme acid resistance: residual activity on ATP after incubation at pH 2; type: physicochemical; details: FIG. 4; for stability in acid resistance assay: pH 2 for 15 or 60 min
Description: Enzyme acid resistance: Candidate enzymes were tested for their ability to resist inactivation at low pH by incubating the enzymes in an “acid buffer” of 50 mM glycine and 5 mM CaCl2 at pH 2 for 15 or 60 minutes and comparing their activity to enzymes in a “control buffer” at their optimum pH. The optimum buffer for CRC21323 and CRC21322 was 50 mM acetate pH 4.5 with 5 mM CaCl2. The optimum buffer for all other enzymes was 50 mM bis-Tris pH 6.5 with 5 mM CaCl2. After incubating in the acidic glycine buffer, the enzyme mixtures were neutralized by mixing with an equal volume of neutralization buffer. The neutralization buffer for CRC21323 and CRC21322 was 100 mM acetate and 10 mM CaCl2 at pH 4.5. The neutralization buffer for the other enzymes was 100 mM bis-Tris and 10 mM CaCl2 at pH 6.5. Next, the acid-stressed and control enzyme were tested for their ability to release phosphate from ATP using the reaction conditions and malachite green assay as described in with the following changes. The only substrate tested was ATP. CRC21323 and CRC21322 were tested with a buffer of acetate pH 4.5, but all other enzymes were tested in a buffer of bis-Tris pH 6.5. After determining the concentration of phosphate in each reaction, the residual activity of each enzyme after 15 or 60 min incubation in the “acid buffer” was calculated by dividing the acid-stressed by the control enzyme phosphate concentrations for each enzyme.

[2] = ATPase activity at 0.05 ppm enzyme on 0.1 mM ATP (absorbance 620 nm); type: biochemical; details: for Activity on ATP (absorbance at 620 nm, blank subtracted), pH 5.0: 50 mM IVIES buffer pH 5; for Activity on ATP (absorbance at 620 nm, blank subtracted), pH 6.0: 50 mM IVIES buffer pH 6
Description: Enzyme activity towards ATP or ADP at pH 3 to 9: The ability of candidate enzymes to degrade ATP or ADP to AMP and free phosphate (Pi) was measured using a standard malachite green phosphate detection kit (Sigma Aldrich cat no. MAK307). The enzyme reactions were carried out in 96-well plates with a total volume of 150 μL and contained 250 μM of a substrate, 50 mM of a buffer, 5 mM CaCl2, and a variable concentration of enzyme. The substrate was ATP or ADP. The buffer was glycine (pH 3), acetate (pH 4, 4.5, 5), bis-Tris (pH 5.5, 6, 6.5), or Tris (pH 7, 8, 9). The concentration of enzyme varied from about 1 μg/mL to 1 ng/mL and was adjusted based on the activity of the enzyme so that the amount of phosphate released during the assay was with the dynamic range of the assay (5-100 μM phosphate). The enzyme concentration was determined by the absorbance at 280 nm and using the predicted molecular weight and molar extinction coefficient to calculate the concentration. The enzyme reaction was initiated by the addition of 15 μL enzyme with 135 μL of the other reaction components such that the final reaction composition was as previously described. The reaction was stopped after 5 min by mixing 80 μL of the reaction mixture with 20 μL of the malachite green working reagent. The malachite green working reagent was prepared according to the manufacturer's protocol by mixing 100 parts reagent A with 1 part reagent B. Phosphate standard solutions (0-80 μM) and a negative control reaction without enzyme were also mixed with the malachite green working reagent. All samples were tested in duplicate. The malachite green reaction mixture was allowed to rest at room temperature for 45-60 min and the absorbance at 620 nm was measured. Lastly, the absorbance of the phosphate standards were used to convert the absorbance readings of each sample into phosphate concentrations and the negative control was subtracted from each reaction.
Enzymes of interest were assayed against ATP substrate. The ATPase activity was measured at 0.05 ppm concentration in 50 mM IVIES buffer pH 6 and pH 5 with 0.1 mM ATP as substrate as described in Example 1. Commercial potato apyrase was used as reference. The absorbance at 620 nm was measured and the absorbance of a blank sample (water) was subtracted from each sample.

[3] = Relative activity on ATP of CRC22110 single-site variants; type: biochemical; details: in comparison to CRC22110 wild type
[4] = system: Acute DSS colitis in C57BL/6 mice; assay: Chemically-induced DSS colitis mouse model, disease activity index (DAI); type: in vivo
From the text: Acute DSS colitis was induced in C57BL/6 mice according to the previously published method with minor modification (Sann et al., 2013, Life Sci. April 9; 92(12):708-18). The mice were fed 3% (w/v) DSS dissolved in the drinking water on day one to day five. Fresh DSS solution was provided every other day. Control mice (Group 1) drank only distilled water. Groups 4 to 8 received candidate acid phosphatase enzymes by oral gavage and groups 9 to 12 received enzymes via catheter (Table 2). DAI was calculated as described earlier (Cooper et al., 1993, Laboratory investigation; a journal of technical methods and pathology. 69(2):238-49).

[5] = Enzyme substrate specificity on nucleotide substrates (malachite green assay); type: biochemical; details: FIG. 3; bis-Tris pH 6.5 (CRC21323, CRC21322 acetate pH 4.5; CD39 pH 7)
Description: Enzyme activity towards ATP or ADP at pH 3 to 9: The ability of candidate enzymes to degrade ATP or ADP to AMP and free phosphate (Pi) was measured using a standard malachite green phosphate detection kit (Sigma Aldrich cat no. MAK307). The enzyme reactions were carried out in 96-well plates with a total volume of 150 μL and contained 250 μM of a substrate, 50 mM of a buffer, 5 mM CaCl2, and a variable concentration of enzyme. The substrate was ATP or ADP. The buffer was glycine (pH 3), acetate (pH 4, 4.5, 5), bis-Tris (pH 5.5, 6, 6.5), or Tris (pH 7, 8, 9). […] The enzyme concentration was determined by the absorbance at 280 nm and using the predicted molecular weight and molar extinction coefficient to calculate the concentration. […] The malachite green reaction mixture was allowed to rest at room temperature for 45-60 min and the absorbance at 620 nm was measured. Lastly, the absorbance of the phosphate standards were used to convert the absorbance readings of each sample into phosphate concentrations and the negative control was subtracted from each reaction.
Enzyme substrate specificity: The activity of the enzymes on different nucleotide substrates was tested using the malachite green assay. […] After converting the absorbance to phosphate concentration, the activity of each enzyme was set relative to the activity on ATP.

B1: CRC21328: GDA1/CD39 family enzyme, accession CCD05982.1, SEQ ID NO:6 (protein, listed as Legionella pneumophila)
chain: DTNPCEKHSCIAVIDAGSTGSRLHIYSYDTDNTNTPIHIEEIWNKKIKPGFASIQPNSVTIDAYLTMLLADAPIHNIPVYFYATAGMRLLPQSQQKKYYDELEYWFRQQSQWQLVEAKTITGNDEALFDWLAVNYKLDTLKSVQNKSVGVMDMGGASVQIVFPMPKNAEISKHNQVELNIYGQNINLYVHSFLGLGQTEMSHQFLNSPSCFANDYPLPDGESGQGNAPSCKEEVTSLMNSVHKVNQQIQPLLALNPVNEWYSIGGISNLASSQLFHFENSELTNQSLLQQGDNQICHQQWDILNGQYPDDEYLYQYCLLSSYYYALMVDGYGINPNQTIHYIPPEQNLDWTIGVVLHRA
[1]; 60 min in acid buffer, 50 mM glycine, 5 mM CaCl2
  residual activity after incubation at pH 2: greatest resistance
[2]
  Activity on ATP (absorbance at 620 nm, blank subtracted), pH 5.0: 0.45
  Activity on ATP (absorbance at 620 nm, blank subtracted), pH 6.0: 0.27

B2: CRC22110v10: single-site variant L206I of CRC22110 (SEQ ID NO: 9) (protein, listed as Gallaecimonas xiamenensis)
chain: ADKPACRAVFDAGSSGTRLFLYVQQEGGWQPWPGAKLGALADPVRQHQGPKAMAALAADLANSLEALRQDGPTNSEGQPRWQGFDWQQACRLQSVSVLATAGMRLAEQQDPVASVALWQEVQQALAGLLGPAVAIDARTLTGFEEGFYAWLAARARLGRSDMGIVEMGGASSQVAFPCPACDRADDAVQQVRLEGQTLDFYSYSFIGLGQDEAPKVLGVPHACRYGAGVKDPNWQLGQCQAQLPLTLGRALKDPYNFQGQGQGGYRQVPTEKAGVKDWLLTGAFQYNTPDQLDSCCLNQGQCYQPSTACFRVAYLPLYLDSLGVDPHSPDLDVSWTLGAVLCRNEQCLAPSKPPCRWRKAGCLAPSVGDGRPEGRPGQQPGGVQHRQH
[3]
  Relative activity (%) on ATP: 16%

B3: CRC22110v5: single-site variant G209A of CRC22110 (SEQ ID NO: 9) (protein, listed as Gallaecimonas xiamenensis)
chain: B2 chain with I206L, G209A
[3]
  Relative activity (%) on ATP: 16%

B4: CRC22110v3: single-site variant G207A of CRC22110 (SEQ ID NO: 9) (protein, listed as Gallaecimonas xiamenensis)
chain: B2 chain with I206L, G207A
[3]
  Relative activity (%) on ATP: 60%

B5: CRC22110v7: single-site variant S204T of CRC22110 (SEQ ID NO: 9) (protein, listed as Gallaecimonas xiamenensis)
chain: B2 chain with S204T, I206L
[3]
  Relative activity (%) on ATP: 53%

B6: CRC22110v1: single-site variant S204A of CRC22110 (SEQ ID NO: 9) (protein, listed as Gallaecimonas xiamenensis)
chain: B2 chain with S204A, I206L
[3]
  Relative activity (%) on ATP: 37%

B7: CRC22110v4: single-site variant L208A of CRC22110 (SEQ ID NO: 9) (protein, listed as Gallaecimonas xiamenensis)
chain: B2 chain with I206L, L208A
[3]
  Relative activity (%) on ATP: 74%

B8: CRC21322: Acid phosphatase (Class A), accession AEG96708.1, SEQ ID NO:17 (protein)
chain: KENKGFLNADTSPDSLAILPPPPTENSVAFLQDKADYETGRVLKNKERTELAAKDANYKNFGQAFSEAFGMVISAERTPVLYLLLSEVLQDSHDYAMRSAKDHYMRVRPFVLYKNPTCTPEKDDKMAKTGSYPSGHASFGWAAALVLAEINPARETEILKRGMDFGESRVVCGAHWQSDVDSGRIMGAAVVAALHANPRFANTLSEAKKEFAALSAKSE
modifications: Klebsiella aerogenes
[1]
  stability in acid resistance assay: least stable
[2]
  Activity on ATP (absorbance at 620 nm, blank subtracted), pH 5.0: 0.40
  Activity on ATP (absorbance at 620 nm, blank subtracted), pH 6.0: 0.07

B9: CRC21323: Acid phosphatase (Class A), accession WP_054306375.1, SEQ ID NO:18 (predicted mature), SEQ ID NO:2 (protein, listed as Serratia rubidaea)
chain: AQTPGFLTPETAPDSLQILPPPPAENTTAFLNDKAAYETGKTLKDAQRQALAASDADYKNISAAFSAAFGEEISPEKTPALYALLQGVLQDSHDYAMRAAKDHYMRVRPFVVYKDSTCTPEKDKSMAKTGSYPSGHASFGWATALVLTEINPARETEILKRGYDFGQSRVVCGAHWQSDVDNGRLMGAAVVAALHGNQGFNDALAKAKAEFAKR
[1]
  stability in acid resistance assay: least stable
[2]
  Activity on ATP (absorbance at 620 nm, blank subtracted), pH 5.0: 0.39
  Activity on ATP (absorbance at 620 nm, blank subtracted), pH 6.0: 0.10
[4]; catheterized mice, test items via cecum BID, FIG. 6A, 6B
  reduction in DAI score compared to control: 40%
[4]; non-catheterized mice, oral gavage BID, FIG. 5A, 5B
  improvement in DAI score compared to control: 43%

B10: CRC22105: GDA1/CD39 family enzyme, accession WP_045094910.1, SEQ ID NO:8 (protein, listed as Legionella fallonii)
chain: ENASCDKHQCITVIDAGSTGSRVHIYAYDLDETNTPTNINEIWTKKIKPGFATIDPNYNTIDAYLTILLSGAPTQQGPVYFYATAGMRLLPASKQKLYYQELQRWFTQQTQWHFVEAKTITGNEEALYDWLSVNYHLGTLKSVQNKAIGVMDMGGASVQIVFPIQKNENIHGRSQVELNIYGQRINLFVHSFLGLGQTEMSHQFLNSTSCFTNDYPLPDGEMGLGNALSCEQEVSSLMNAVHGVSKTIQPVLAANSVDSWYAIGGLTNLADNKLFNFVNGQLTNQSLIEQADSQICHQQWSKLDAQYPNDDYIYGYCLFSSYFYALMVDGYGISPEQTVNYISPSINLDWTKGVVLHHLS
[5]
  activity on different nucleotide substrate relative to ATP: noticeably reduced activity on UTP/UDP and CTP/CDP
[2]
  Activity on ATP (absorbance at 620 nm, blank subtracted), pH 5.0: 0.26
  Activity on ATP (absorbance at 620 nm, blank subtracted), pH 6.0: 0.28

Source: patent US20240124857A1, “COMPOSITION FOR GUT HEALTH” (DUPONT NUTRITION BIOSCIENCES APS, priority 2021, published 2024)
